Data: article PMC3401278 (ACS Chemical Biology, 2012)
Like-named read-outs stand apart in the source and are kept apart here. Where no end group is shown, it is not given here. The star is where a group is joined. FITC = O=C1OC2(c3ccc(O)cc3Oc3cc(O)ccc32)c2ccc(NC(=S)*)cc21; βAla = NCCC(=O)O

Legend:
E. coli His6-LpxD [1] = target: T1, E. coli His6-LpxD (Escherichia coli, UniProt P21645); experiment: biochemical; type: binding
LpxA = LpxA (Escherichia coli, UniProt P0A722); experiment: Continuous fluorescent acyltransferase inhibition assay; type: biochemical, E. coli; conditions: pH 7.5
E. coli LpxA = E. coli LpxA (Escherichia coli, UniProt P0A722); experiment: Fluorescence polarization competition binding assay, LpxA
E. coli His6-LpxD [2] = target: T1, E. coli His6-LpxD; experiment: Fluorescence polarization direct binding of FITC-labeled peptide to His6-LpxD; conditions: at up to 180 μM LpxD
[3] = target: T2, E. coli His6-LpxD (UDP-3-O-(R-3-hydroxyacyl)glucosamine N-acyltransferase) (E. coli, UniProt P21645 1-341); experiment: fluorescence polarisation
T2 sequence (looked up): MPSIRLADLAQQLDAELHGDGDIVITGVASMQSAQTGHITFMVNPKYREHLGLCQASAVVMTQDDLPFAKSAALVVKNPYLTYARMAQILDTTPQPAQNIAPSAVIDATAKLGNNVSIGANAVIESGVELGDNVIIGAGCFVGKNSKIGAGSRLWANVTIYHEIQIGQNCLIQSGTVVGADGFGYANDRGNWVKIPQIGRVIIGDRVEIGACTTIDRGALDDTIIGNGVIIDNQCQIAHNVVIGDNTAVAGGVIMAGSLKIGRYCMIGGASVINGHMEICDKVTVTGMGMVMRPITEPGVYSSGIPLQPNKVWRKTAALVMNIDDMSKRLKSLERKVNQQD

[4] = target: T3, E. coli LpxA (UDP-N-acetylglucosamine acyltransferase), native (E. coli, UniProt P0A722 1-262); experiment: fluorescence polarisation
T3 sequence (looked up): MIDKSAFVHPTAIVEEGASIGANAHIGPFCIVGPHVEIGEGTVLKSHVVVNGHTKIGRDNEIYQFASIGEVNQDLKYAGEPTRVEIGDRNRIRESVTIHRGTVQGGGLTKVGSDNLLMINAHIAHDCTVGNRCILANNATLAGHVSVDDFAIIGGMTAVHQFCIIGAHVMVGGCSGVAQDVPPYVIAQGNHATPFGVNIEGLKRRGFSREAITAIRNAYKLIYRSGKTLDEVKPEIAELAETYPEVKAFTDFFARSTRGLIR

[5] = target: T2, E. coli His6-LpxD …; experiment: fluorescence polarisation; remark: listed apart in the source

In the case of CC[C@H](C)[C@H](NC(=O)[C@@H]1CCCN1C(=O)[C@H](CC(=O)O)NC(=O)[C@H](CC(C)C)NC(=O)[C@H](CCSC)NC(=O)[C@H](Cc1c[nH]c2ccccc12)NC(=O)CNC(=O)[C@H](CO)NC(=O)[C@@H](N)CO)C(=O)N[C@@H](C)C(=O)NCC(=O)N[C@@H](CCCCN)C(=O)N[C@@H](Cc1c[nH]c2ccccc12)C(=O)N[C@@H](CO)C(=O)N[C@@H](CCCNC(=N)N)C(N)=O [P920], the Kd (E. coli His6-LpxD [1]) is reported as greater than 300 µM.

SENNFMLPLLPL-NH2 [RJPXD34] was tested, and the “LpxA IC50” value (LpxA) was “did not inhibit” and the Kd (E. coli LpxA) was greater than 300 µM.

β-alanyl-fluorescein was tested, and the “ΔmP with LpxD, fluorophore alone” value (E. coli His6-LpxD [2]) was ~ 26 mP.

For TNLYMLPKWDIP-NH2 [RJPXD33 (TNLYMLPKWDIP-NH2)], the Kd [3] was 6.5 ± 0.2 µM and the Kd [4] was 22 ± 2.1 µM.

In the case of SENNFMLPLLPL-NH2 [RJPXD34 (SENNFMLPLLPL-NH2)], the Kd [3] is reported as 31 ± 1.5 µM.

Molecule QHFMVPDINDMQ-NH2 [RJPXD31 (QHFMVPDINDMQ-NH2)] has a Kd [3] of 41 ± 3 µM and a Kd [4] of 119 ± 9 µM.

B1: FITC-RJPXD33 (FITC-(βA)TNLYMLPKWDIP-NH2) (peptide)
peptide: {FITC-βAla}-TNLYMLPKWDIP-NH2
SMILES: CC[C@H](C)[C@H](NC(=O)[C@H](CC(=O)O)NC(=O)[C@H](Cc1c[nH]c2ccccc12)NC(=O)[C@H](CCCCN)NC(=O)[C@@H]1CCCN1C(=O)[C@H](CC(C)C)NC(=O)[C@H](CCSC)NC(=O)[C@H](Cc1ccc(O)cc1)NC(=O)[C@H](CC(C)C)NC(=O)[C@H](CC(N)=O)NC(=O)[C@@H](NC(=O)CCNC(=S)Nc1ccc2c(c1)C(=O)OC21c2ccc(O)cc2Oc2cc(O)ccc21)[C@@H](C)O)C(=O)N1CCC[C@H]1C(N)=O
Work on B1 yielded a Kd [5] of 0.6 ± 0.04 µM.
